IntAct's records for PubMed 19118202

B1: P-selectin (Homo sapiens), P16109 (parent)
chain: MANCQIAILYQRFQRVVFGISQLLCFSALISELTNQKEVAAWTYHYSTKAYSWNISRKYCQNRYTDLVAIQNKNEIDYLNKVLPYYSSYYWIGIRKNNKTWTWVGTKKALTNEAENWADNEPNNKRNNEDCVEIYIKSPSAPGKWNDEHCLKKKHALCYTASCQDMSCSKQGECLETIGNYTCSCYPGFYGPECEYVRECGELELPQHVLMNCSHPLGNFSFNSQCSFHCTDGYQVNGPSKLECLASGIWTNKPPQCLAAQCPPLKIPERGNMTCLHSAKAFQHQSSCSFSCEEGFALVGPEVVQCTASGVWTAPAPVCKAVQCQHLEAPSEGTMDCVHPLTAFAYGSSCKFECQPGYRVRGLDMLRCIDSGHWSAPLPTCEAISCEPLESPVHGSMDCSPSLRAFQYDTNCSFRCAEGFMLRGADIVRCDNLGQWTAPAPVCQALQCQDLPVPNEARVNCSHPFGAFRYQSVCSFTCNEGLLLVGASVLQCLATGNWNSVPPECQAIPCTPLLSPQNGTMTCVQPLGSSSYKSTCQFICDEGYSLSGPERLDCTRSGRWTDSPPMCEAIKCPELFAPEQGSLDCSDTRGEFNVGSTCHFSCDNGFKLEGPNNVECTTSGRWSATPPTCKGIASLPTPGVQCPALTTPGQGTMYCRHHPGTFGFNTTCYFGCNAGFTLIGDSTLSCRPSGQWTAVTPACRAVKCSELHVNKPIAMNCSNLWGNFSYGSICSFHCLEGQLLNGSAQTACQENGHWSTTVPTCQAGPLTIQEALTYFGGAVASTIGLIMGGTLLALLRKRFRQKDDGKCPLNPHSHLGTYGVFTNAAFDPSP
partner: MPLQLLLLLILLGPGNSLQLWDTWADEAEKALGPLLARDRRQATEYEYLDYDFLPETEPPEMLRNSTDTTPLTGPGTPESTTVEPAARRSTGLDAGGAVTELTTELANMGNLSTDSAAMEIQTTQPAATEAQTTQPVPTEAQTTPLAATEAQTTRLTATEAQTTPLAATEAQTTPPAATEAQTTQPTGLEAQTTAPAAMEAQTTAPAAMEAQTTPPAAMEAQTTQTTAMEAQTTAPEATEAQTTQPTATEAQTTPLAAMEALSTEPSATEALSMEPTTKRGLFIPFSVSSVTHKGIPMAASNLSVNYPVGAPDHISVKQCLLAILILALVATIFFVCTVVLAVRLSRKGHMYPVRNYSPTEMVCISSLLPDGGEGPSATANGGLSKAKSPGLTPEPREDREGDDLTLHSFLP

Variants of: B1
Settings: with selpl_human SELPLG

| effect of a mutation on the interaction | Variant |
| --- | --- |
| increasing interaction | A69H |
